From patent US20110223165A1 (Amgen, published 2011) come the findings set out here.

Assay [1] deals with T1, human membrane c-Kit on cells (human, UniProt P10721 26-976). Kind of assay: cell-based or functional assay.
The target of assay [2] is T2, Fcγ receptor I (CD64) on U-937 cells (UniProt P12314 16-374, limits assumed).
T2 construct: whole, on cells; also called FcγRI
Description: binding to U-937 cells.

Assay [3] deals with T1, human membrane c-Kit on cells. Description: cell-based or functional assay. This is another data set of the same source.
Assay [4] has as its target T3, recombinant c-Kit receptor-Fc (UniProt P10721 26-520, limits assumed).
T3 construct: not shown: Fc part
Description: KinExA equilibrium binding; KinExA equilibrium binding; recombinant c-Kit receptor-Fc.

For assay [5], the target named is c-Kit (form in the assay not stated) (UniProt P10721 26-520, limits assumed). Description: Biacore assay, blocking of SCF binding to c-Kit; Biacore; blocking of SCF binding; c-Kit form not stated.
Chain of c-Kit (form in the assay not stated) (P10721 26-520 limits assumed): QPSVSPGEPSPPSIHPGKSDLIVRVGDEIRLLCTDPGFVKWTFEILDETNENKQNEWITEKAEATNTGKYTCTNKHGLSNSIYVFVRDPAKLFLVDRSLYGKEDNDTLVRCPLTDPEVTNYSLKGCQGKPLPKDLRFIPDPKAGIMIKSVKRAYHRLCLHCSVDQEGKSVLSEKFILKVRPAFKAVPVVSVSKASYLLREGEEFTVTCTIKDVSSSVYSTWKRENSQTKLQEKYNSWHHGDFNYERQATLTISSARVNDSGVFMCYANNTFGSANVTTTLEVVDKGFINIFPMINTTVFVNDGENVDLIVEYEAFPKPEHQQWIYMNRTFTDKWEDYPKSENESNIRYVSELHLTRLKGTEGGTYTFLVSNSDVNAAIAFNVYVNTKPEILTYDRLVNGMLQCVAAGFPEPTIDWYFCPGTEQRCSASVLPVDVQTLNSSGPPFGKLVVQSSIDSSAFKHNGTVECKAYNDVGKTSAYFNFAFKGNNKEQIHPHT

T1 sequence (P10721 26-976): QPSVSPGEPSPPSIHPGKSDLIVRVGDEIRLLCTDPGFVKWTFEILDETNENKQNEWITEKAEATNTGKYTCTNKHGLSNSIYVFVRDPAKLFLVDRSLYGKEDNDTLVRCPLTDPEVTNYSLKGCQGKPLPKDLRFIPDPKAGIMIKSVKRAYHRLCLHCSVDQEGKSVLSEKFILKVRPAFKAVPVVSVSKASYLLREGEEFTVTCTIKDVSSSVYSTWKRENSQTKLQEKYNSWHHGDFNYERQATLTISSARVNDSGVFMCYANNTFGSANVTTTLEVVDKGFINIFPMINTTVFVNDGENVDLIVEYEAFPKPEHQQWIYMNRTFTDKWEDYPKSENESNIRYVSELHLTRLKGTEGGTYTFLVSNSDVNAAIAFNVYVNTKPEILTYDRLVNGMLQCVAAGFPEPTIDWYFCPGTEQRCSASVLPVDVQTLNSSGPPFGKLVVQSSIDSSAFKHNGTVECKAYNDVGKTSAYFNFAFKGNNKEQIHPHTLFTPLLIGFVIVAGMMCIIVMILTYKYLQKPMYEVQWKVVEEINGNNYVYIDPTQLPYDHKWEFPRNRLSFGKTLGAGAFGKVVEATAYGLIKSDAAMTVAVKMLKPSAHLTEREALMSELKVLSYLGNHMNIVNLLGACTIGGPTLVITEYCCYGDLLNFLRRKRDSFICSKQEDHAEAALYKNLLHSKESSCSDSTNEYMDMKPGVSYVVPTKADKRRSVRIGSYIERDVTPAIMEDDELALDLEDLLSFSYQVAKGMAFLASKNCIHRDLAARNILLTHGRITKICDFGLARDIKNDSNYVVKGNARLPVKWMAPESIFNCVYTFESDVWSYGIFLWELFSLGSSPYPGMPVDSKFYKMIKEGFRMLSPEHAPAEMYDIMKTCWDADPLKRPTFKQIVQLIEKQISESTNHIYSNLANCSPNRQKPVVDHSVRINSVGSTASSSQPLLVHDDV
T2 sequence (P12314 16-374 limits assumed): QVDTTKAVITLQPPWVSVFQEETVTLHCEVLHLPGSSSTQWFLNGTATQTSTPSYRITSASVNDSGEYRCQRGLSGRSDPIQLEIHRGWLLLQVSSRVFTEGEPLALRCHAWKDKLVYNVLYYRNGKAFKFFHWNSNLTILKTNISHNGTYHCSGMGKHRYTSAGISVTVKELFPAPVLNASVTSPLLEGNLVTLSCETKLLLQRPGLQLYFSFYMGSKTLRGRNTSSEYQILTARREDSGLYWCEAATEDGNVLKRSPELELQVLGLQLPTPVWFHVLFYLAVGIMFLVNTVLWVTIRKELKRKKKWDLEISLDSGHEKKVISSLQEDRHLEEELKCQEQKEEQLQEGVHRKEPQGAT
T3 sequence (P10721 26-520 limits assumed): as the sequence (P10721 26-520 limits assumed) above

B1: murine anti-human c-Kit monoclonal antibody SR-1 (antibody, mouse IgG2a, kappa, V domains shown)
VH: QVQLQQPGAELVKPGASVKMSCKASGYTFTSYNMHWVKQTPGQGLEWIGVIYSGNGDTSYNQKFKGKATLTADKSSSTAYMQINSLTSEDSAVYYCARERDTRFGNWGQGTLVTVSA
VL: NIVLTQSPASLAVSLGLRATISCRASESVDIYGNSFMHWYQQKPGQPPKLLIYLASNLESGVPARFSGSGSRTDFTLTIDPVEADDAATYYCQQNNEDPYTFGGGTKLEIKR
Consider B1, for which the “UT-7 IC50” value in assay [1] was 3.6 ng/mL.

B2: Humanized SR-1 aglycosylated IgG1 (hSR-1 aIgG1) (antibody)
heavy: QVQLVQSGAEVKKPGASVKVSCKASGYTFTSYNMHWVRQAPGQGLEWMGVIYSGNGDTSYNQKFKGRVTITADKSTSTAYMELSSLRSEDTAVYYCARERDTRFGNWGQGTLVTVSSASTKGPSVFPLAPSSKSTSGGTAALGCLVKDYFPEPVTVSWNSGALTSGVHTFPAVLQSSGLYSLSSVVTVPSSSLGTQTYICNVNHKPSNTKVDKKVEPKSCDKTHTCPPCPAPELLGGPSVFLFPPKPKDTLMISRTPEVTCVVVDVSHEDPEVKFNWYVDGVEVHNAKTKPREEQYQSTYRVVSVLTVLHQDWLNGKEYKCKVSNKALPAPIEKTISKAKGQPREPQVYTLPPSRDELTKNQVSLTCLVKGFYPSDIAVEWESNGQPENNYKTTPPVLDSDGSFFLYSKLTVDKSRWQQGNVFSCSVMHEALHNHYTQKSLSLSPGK
light: DIVMTQSPDSLAVSLGERATINCRASESVDIYGNSFMHWYQQKPGQPPKLLIYLASNLESGVPDRFSGSGSGTDFTLTISSLQAEDVAVYYCQQNNEDPYTFGGGTKVEIKRTVAAPSVFIFPPSDEQLKSGTASVVCLLNNFYPREAKVQWKVDNALQSGNSQESVTEQDSKDSTYSLSSTLTLSKADYEKHKVYACEVTHQGLSSPVTKSFNRGEC
notes: also called Humanized SR-1 aIgG1; Humanized SR-1 aglyco-IgG1
In the case of B2, the binding result in assay [2] is given as “no binding”. Moreover, the “IC50, SCF-dependent survival/proliferation of UT-7 cells” value in assay [3] came to 0.035 nM. The “UT-7 IC50” value in assay [1] was 4.5 ng/mL. In addition, the Kd in assay [4] turned out to be 0.001 nM. For the same molecule, in assay [5], the Ki stood at 0.07 nM.
